For orientation: Kd means the equilibrium constant for the complex coming apart. The term koff denotes the rate constant with which the complex falls apart.

Drawing on publication PMC12749359, “Chromosome compartment assembly is essential for subtelomeric gene silencing in trypanosomes” (Nature Communications, 2025), this text covers Kd and koff for one molecule.

The target of assay [1] is T1, repressor-activator protein 1, His-tagged recombinant (T. brucei, UniProt Q387L4 1-855).
T1 construct: RAP1 of Trypanosoma brucei, recombinant; also called RAP1-His; his-tagged RAP1; source: recombinantly produced in E. coli
T1 sequence (looked up): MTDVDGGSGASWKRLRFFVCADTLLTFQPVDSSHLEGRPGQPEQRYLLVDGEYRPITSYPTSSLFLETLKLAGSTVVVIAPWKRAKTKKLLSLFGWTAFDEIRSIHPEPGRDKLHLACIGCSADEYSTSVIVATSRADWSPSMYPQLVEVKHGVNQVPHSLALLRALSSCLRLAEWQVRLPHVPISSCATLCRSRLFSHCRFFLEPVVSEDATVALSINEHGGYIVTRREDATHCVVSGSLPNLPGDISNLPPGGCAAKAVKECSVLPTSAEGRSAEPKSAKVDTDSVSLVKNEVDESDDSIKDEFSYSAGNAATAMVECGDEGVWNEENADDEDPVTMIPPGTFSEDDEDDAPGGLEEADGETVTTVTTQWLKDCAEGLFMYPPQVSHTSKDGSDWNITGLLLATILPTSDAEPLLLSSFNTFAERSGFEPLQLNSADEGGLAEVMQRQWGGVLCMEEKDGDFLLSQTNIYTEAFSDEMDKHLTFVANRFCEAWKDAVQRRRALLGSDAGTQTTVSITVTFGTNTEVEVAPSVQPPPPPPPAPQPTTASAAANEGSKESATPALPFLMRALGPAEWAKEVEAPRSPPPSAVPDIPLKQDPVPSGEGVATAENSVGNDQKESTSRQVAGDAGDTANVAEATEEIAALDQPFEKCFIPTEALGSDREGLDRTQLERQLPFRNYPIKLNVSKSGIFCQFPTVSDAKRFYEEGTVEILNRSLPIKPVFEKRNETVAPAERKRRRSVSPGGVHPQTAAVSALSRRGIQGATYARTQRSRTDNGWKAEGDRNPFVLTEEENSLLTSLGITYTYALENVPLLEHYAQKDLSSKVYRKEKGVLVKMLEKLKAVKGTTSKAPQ
Kind of assay: SPR; RAP1-His immobilised on NTA sensor (Nicoya OpenSPR-XT), blocked with 0.5% BSA; PIP5Pase-V5 added at 0.0008, 0.004, 0.008, 0.016 nM; 20 mM HEPES, 150 mM NaCl, 10 mM KCl, 10 mM MgCl2, 10 mM CaCl2, 0.2% NP-40; three replicates. Conditions: both partners purified. For orientation: SPR reads the build-up and loss of mass on a sensor chip optically.

Assay [2] addresses T2, repressor-activator protein 1, His-tagged recombinant (T. brucei, UniProt Q387L4 1-855).
T2 chain: T1 sequence (looked up)
Nature of the assay: SPR.

Assay [3] concerns the target T2, repressor-activator protein 1, …. Nature of the assay: SPR.

B1: phosphatidylinositol phosphate 5-phosphatase, V5-tagged (enzyme, T. brucei, UniProt Q385E2 1-564, looked up)
chain: MRSLLEGITSTLRSAQQHQTGWDPRNATSTGVPTTAQEAFSGGVPAVAQRDLSHVEGPVSSKGGAPMDCITGYSRFSTHSPPDFPFRMLMITQNVGAIGDTAAGAKEGGEEHRRECEKQAGNDELSSDAQKDVREFLSELRLLIFEYSRREYTAHIRVSNTGDDDPSHPSAADIGGQGPPPLIDVIVVHFQEIGGKSFHTEFNNYFANALQELLPEAGWTSGLLMRANDDEDQFTAVGSVVYLSHRMCPISSILSFHHRTFVCVGDDPVTYGSSPTILFHGGKFSGAGESRKGYLLISLRLGTVVVNFLNVHLYNDKKSKEAAAASPSPYALQRQEALLETLAECAAFISPDDPLFIFGDFNTRLDVHNMLQYLKEVENLDVKVSDGDVRAPDSFWELFENPQHMGVIRPYDVEVQRLLDVVAQQSGMELAEFAVRFPPTYLCQSPRDSEEATFQIDTPVHLVNDGEDKRESGTSDRISVVRVLERLSSIPHHPYGRRRVPAWCDRVLWNPPALELMTGRRTSQSVAGSSATAHGGTGVGALRRYVYRSVALRHTDHAAVTLFF
notes: PIP5Pase of Trypanosoma brucei, endogenous allele tagged at the C-terminus (pMOTag3V5) in Lister 427 single-marker cells; also called PIP5Pase; PIP5Pase-V5; source: T. brucei bloodstream forms, endogenously tagged allele, in lysate of DSS cross-linked cells (XLMS, IP); isolated from T. brucei (SPR); not shown: 3xV5 (42 amino acids), C-terminal, kept
With B1, the Kd in assay [1] was 2.7 nM; in assay [3] it was 270 nM. In addition, in assay [2], the koff is 0.41 s⁻¹.
